Measurements as given in a protein production outcome set (Wang et al. 2014).

Assay: label from the status in PepcDB records

Row | Sequence | protein production
1 | MLAELFAVMAPVLFGAGVGYVWVRLGHAYPTEFVSRIVFNIGSPCLILATLAHTRVDLHSFGRMALASALICVCMAALGWAAARLGRQEWQVLVPAYSFPNVGNMGLPVCLYAFGEAGMTLAVAFYLIMSIGNFSLGVFWMSGERSWRSLLGNPILLSVLLALLLMGLDLQLPRWMANTVDLMAGLTIPLMLITLGVSLASIRPRQLGNGFFYGGLRLLLGALVGWSVALALQLPPLAQGVLVVQSSMPVAVFNYLYALRGNRSPDQVASLVLCSTLLSFAFIPLLLTWWLPALR | failed
2 | MLCACSGEQFRFEDQPGSPESLATRDFSASGLSSRNGGGDWDSKLEDIQVDEAESTLKEALSLNYEEARALLGRLEYQRGNFDAALQVFKGIDIKVLTPRIIKAIVEKTLPCKPRSKAVIVPPTTMSMHSVSLLLEAILLKARSLEELGSYKEAAEECKIILDVVENALPSGMPDGISGFAKLQDIFQKALELLPLLWKKAGNHHETIASYRRALSRPWNLDPQRLAVTQKSLALVLLYGSVEACPKDNIEEAIVLLMLLVKKMVVGDIQWDPELMDHLTYALSMTGQFEVLANYLEQTLPGVYTRGERWYLLSLCYSAAGIDKAAINLLKMALGPSESRQIPHIPLLLFGAKLCSKDPKHSRDGINFAHRLLDLGNSQSEHLLSQAHKFLGVCYGNAARSSKLDSERVFLQKKSLFSLNEAAKRGKADPELDVIFNLSVENAVQRNVQAALDGAVEYSSMVGGVSTKGWKHLAIVLSAEKRLKDAESILDFTMEEAGDIEKIELLRLKAVLQMAQEQPKKAMKTCSSLLGLIRAQEKSEQSESLLQKFETEAWQDLASVYGKLGSWSDAETCLEKARSMCYYSPRGWNETGLCLEAKSLHEEALISFFLSLSIEPDHVPSIVSIAEVMMKSGDESLPTAKSFLMNALRLDPRNHDAWMKLGHVAKKQGLSQQAAEFYQAAYELELSAPVQSFI | failed
3 | MLCLHAPSRCEAAPAFPHTYSHYSEQEQLTALLADFGRTQGLATSFSPGVTGTVSGRFEDVAPEKFLQGMKAAFGVSWYRLGPTLHFYHEAETTRIFISPRVMSAESLYRMLRQSSVLSPQLPAELMPGGAMVVVSGPPAYLDQIQAAVTAFEEAQTGNFGMKVFPLKYAWAEDITVNSMDKTVTLPGVASILRAMVSGSPSSATRVTQETATVDKLSGTGLISQGRQQKESGQSNQAQRGGQASQQDSGGAQDGQQVSIMADPRVNAVIVHDAVYRMPYYESVIGDLDRPVELVEIHAAIVDIDTNFKRDLGVTYQATVGKDQRWAGGADVSTGTDKFTPLPVPGVPQGSGLTLSTIYTMGSDYFLARINALEKNGEARMLGRPSVLTVDNVQATLENTSTYYIQVQGYQAVDLFKVEAGTVLRVTPHIINNDDGTDAIKLVVSVQDDQNNQTTPTSTSTTQAIPPIKQTKINTQAIIGAGQSLLIGGYYYEQKATSADGVPILMNIPVLGNLFKTQSKENKRMERLILITPKVVRLDNLPGTPPRVDDPAFHRTATQSDYAERTPTPPPSRRSGCSRAPDNAPEAASGAAGGTGGTGVTANTEGGTTPQAATSPVPAYGVAP | failed
4 | MLDASPATARSPLEKRRPNVCREEQLTLVRLSRPCAQAFIDTIQFWKQGCSGPRWCVGYERRIRYYIIYRHVYATEHQTVFRCCPGWIQWDDEPGCFSSLSSLGTHFSGRECSYQDTRQCLCSQGFHGPHCQYDINECAVDNGGCRDRCCNTIGSYYCRCQAGQKLEEDGRGCEDVDECAVVNGGCQQRCINTLGTFHCECDTGYRRHADERTCIRIELEIVNICEKNNGGCSHHCEPAIGGAHCSCNHGHQLDTDGKTCIALDEQLEEEEEEIDILRFPGRLAQNPPQPFPYLDPSLTASYEDEDNDDADSEAEGEVQGLTALYRVVCLDGTFGLDCSLSCEDCMNGGRCQEGKSGCLCPAEWTGLICNESSVLRTGEDQQAPAGCLKGFFGKNCKRKCHCANNVHCHRVYGACMCDLGRYGRFCHLSCPRGAYGASCSLECQCVEENTLECSAKNGSCTCKSGYQGNRCQEGTIR | failed
5 | MLDISFGEFVLIGVVALVVLGPERLPTVARTVGALVARAQRFVANVKADMQQQANLQGLDSLRQDLQDAAHSFRGQLEAEVQQVRDAIDQNAADARALAEQAAEPFHEAERTIHGGLAPDAEAEAREAETHPAEPAPAAQADVPPRDENQLDLFDDLPPHRPPASQPSASQARE | failed
